Numbering of substitutions follows the chain as printed. In names and notes the source's numbering stands.
B1: GLS3000 F55K (antibody, IgG1, name in Kabat numbering, V domains shown)
VH: QVQLVESGGGVVQPGRSLRLSCAASGFTFSNAWMHWVRQAPGKGLEWVAQIKAKSNNYATYYAESVKGRFTISRDDSKNSLYLQMNSLKTEDTAVYYCRYVHYGAYYGVDAWGQGTTVTVSS
VL: DIVMTQSPLSLPVTPGEPASISCRSSQSLVHSNRNTYLHWYQQKPGQAPRLLIYKVSNRKSGVPDRFSGSGSGTDFTLKISRVEAEDVGVYYCGQGTQVPYTFGQGTKLEIK
B2: GLS3000 P95E (antibody, IgG1, name in Kabat numbering, V domains shown)
VH: B1 VH
VL: B1 VL with K60F, P100E
B3: GLS3000 N28D (antibody, IgG1, name in Kabat numbering, V domains shown)
VH: B1 VH
VL: B1 VL with N33D, K60F
B4: GLS3000 R45D (antibody, IgG1, name in Kabat numbering, V domains shown)
VH: B1 VH
VL: B1 VL with R50D, K60F
B5: GLS3000 H34E (antibody, IgG1, name in Kabat numbering, V domains shown)
VH: B1 VH
VL: B1 VL with H39E, K60F
B6: GLS3000 R29V (antibody, IgG1, name in Kabat numbering, V domains shown)
VH: B1 VH
VL: B1 VL with R34V, K60F
B7: GLS3000 H34M (antibody, IgG1, name in Kabat numbering, V domains shown)
VH: B1 VH
VL: B1 VL with H39M, K60F
B8: GLS3000 G89W (antibody, IgG1, name in Kabat numbering, V domains shown)
VH: B1 VH
VL: B1 VL with K60F, G94W
B9: GLS3000 L27bE (antibody, IgG1, name in Kabat numbering, V domains shown)
VH: B1 VH
VL: B1 VL with L29E, K60F
B10: GLS3000 L33P (antibody, IgG1, name in Kabat numbering, V domains shown)
VH: B1 VH
VL: B1 VL with L38P, K60F
B11: GLS3000 N30Y (antibody, IgG1, name in Kabat numbering, V domains shown)
VH: B1 VH
VL: B1 VL with N35Y, K60F
B12: GLS3000 G89A (antibody, IgG1, name in Kabat numbering, V domains shown)
VH: B1 VH
VL: B1 VL with K60F, G94A
B13: GLS3000 Q90Y (antibody, IgG1, name in Kabat numbering, V domains shown)
VH: B1 VH
VL: B1 VL with K60F, Q95Y
B14: GLS3000 G89Y (antibody, IgG1, name in Kabat numbering, V domains shown)
VH: B1 VH
VL: B1 VL with K60F, G94Y
B15: GLS3000 G91S (antibody, IgG1, name in Kabat numbering, V domains shown)
VH: B1 VH
VL: B1 VL with K60F, G96S
B16: GLS3000 R45E (antibody, IgG1, name in Kabat numbering, V domains shown)
VH: B1 VH
VL: B1 VL with R50E, K60F
B17: GLS3000 H34R (antibody, IgG1, name in Kabat numbering, V domains shown)
VH: B1 VH
VL: B1 VL with H39R, K60F
B18: CE115HA000 Y97D (antibody, name in Kabat numbering, V domains shown)
VH: B1 VH with Y103D
VL: B1 VL with K60F
B19: CE115HA000 Y100A (antibody, name in Kabat numbering, V domains shown)
VH: B1 VH with Y106A
VL: B1 VL with K60F
B20: CE115HA000 Y100D (antibody, name in Kabat numbering, V domains shown)
VH: B1 VH with Y106D
VL: B1 VL with K60F
B21: CE115HA000 Y58L (antibody, name in Kabat numbering, V domains shown)
VH: B1 VH with Y61L
VL: B1 VL with K60F
B22: CE115HA000 Y58S (antibody, name in Kabat numbering, V domains shown)
VH: B1 VH with Y61S
VL: B1 VL with K60F
B23: CE115HA000 Y100P (antibody, name in Kabat numbering, V domains shown)
VH: B1 VH with Y106P
VL: B1 VL with K60F
B24: CE115HA000 Y100aS (antibody, name in Kabat numbering, V domains shown)
VH: B1 VH with Y107S
VL: B1 VL with K60F
B25: CE115HA000 Y100aQ (antibody, name in Kabat numbering, V domains shown)
VH: B1 VH with Y107Q
VL: B1 VL with K60F
B26: CE115HA000 W33Y (antibody, name in Kabat numbering, V domains shown)
VH: B1 VH with W33Y
VL: B1 VL with K60F
B27: CE115HA000 Y100W (antibody, name in Kabat numbering, V domains shown)
VH: B1 VH with Y106W
VL: B1 VL with K60F
B28: CE115HA000 Y100Q (antibody, name in Kabat numbering, V domains shown)
VH: B1 VH with Y106Q
VL: B1 VL with K60F
B29: CE115HA000 Y100aH (antibody, name in Kabat numbering, V domains shown)
VH: B1 VH with Y107H
VL: B1 VL with K60F
B30: CE115HA000 Y55D (antibody, name in Kabat numbering, V domains shown)
VH: B1 VH with Y58D
VL: B1 VL with K60F
B31: CE115HA000 Y58A (antibody, name in Kabat numbering, V domains shown)
VH: B1 VH with Y61A
VL: B1 VL with K60F
B32: CE115HA000 Y55G (antibody, name in Kabat numbering, V domains shown)
VH: B1 VH with Y58G
VL: B1 VL with K60F
B33: CE115HA000 Y100V (antibody, name in Kabat numbering, V domains shown)
VH: B1 VH with Y106V
VL: B1 VL with K60F
B34: CE115HA000 Y59E (antibody, name in Kabat numbering, V domains shown)
VH: B1 VH with Y62E
VL: B1 VL with K60F
B35: CE115HA000 Y58D (antibody, name in Kabat numbering, V domains shown)
VH: B1 VH with Y61D
VL: B1 VL with K60F
B36: CE115HA000 Y59A (antibody, name in Kabat numbering, V domains shown)
VH: B1 VH with Y62A
VL: B1 VL with K60F
B37: CE115HA000 Y58K (antibody, name in Kabat numbering, V domains shown)
VH: B1 VH with Y61K
VL: B1 VL with K60F
B38: CE115HA000 Y55S (antibody, name in Kabat numbering, V domains shown)
VH: B1 VH with Y58S
VL: B1 VL with K60F
B39: CE115HA000 Y58N (antibody, name in Kabat numbering, V domains shown)
VH: B1 VH with Y61N
VL: B1 VL with K60F
B40: CE115HA000 Y97P (antibody, name in Kabat numbering, V domains shown)
VH: B1 VH with Y103P
VL: B1 VL with K60F
B41: CE115HA000 Y59S (antibody, name in Kabat numbering, V domains shown)
VH: B1 VH with Y62S
VL: B1 VL with K60F
B42: CE115HA000 Y58Q (antibody, name in Kabat numbering, V domains shown)
VH: B1 VH with Y61Q
VL: B1 VL with K60F
B43: CE115HA000 Y100aG (antibody, name in Kabat numbering, V domains shown)
VH: B1 VH with Y107G
VL: B1 VL with K60F
B44: CE115HA000 Y100aF (antibody, name in Kabat numbering, V domains shown)
VH: B1 VH with Y107F
VL: B1 VL with K60F
B45: CE115HA000 Y59D (antibody, name in Kabat numbering, V domains shown)
VH: B1 VH with Y62D
VL: B1 VL with K60F

Molecular target: T1, CD3ε homodimer protein (human, UniProt P07766 23-126, limits assumed)
T1 construct: Whole entry named for the human CD3 epsilon chain
Test: SPR, CD3e immobilized
Experimental: Each one-amino acid altered form constructed, expressed, and purified in the paragraph (6-2) was evaluated using Biacore T200 (GE Healthcare Japan Corp.). An appropriate amount of CD3ε homodimer protein was immobilized onto Sensor chip CM4 (GE Healthcare Japan Corp.) by the amine coupling method. Then, the antibody having an appropriate concentration was injected thereto as an analyte and allowed to interact with the CD3ε homodimer protein on the sensor chip. Then, the sensor chip was regenerated by the injection of 10 mmol/L glycine-HCl (pH 1.5). The assay was conducted at 25° C., and HBS-EP+ (GE Healthcare Japan Corp.) was used as a running buffer. […] Each parameter was calculated using Biacore T200 Evaluation Software (GE Healthcare Japan Corp.).
Specifically, when the amount of the GLS3000-containing antibody bound was defined as X and the amount of the L chain one-amino acid altered form bound was defined as Y, a value of Z (ratio of amounts bound)=Y/X was used.

T1 sequence (P07766 23-126 limits assumed): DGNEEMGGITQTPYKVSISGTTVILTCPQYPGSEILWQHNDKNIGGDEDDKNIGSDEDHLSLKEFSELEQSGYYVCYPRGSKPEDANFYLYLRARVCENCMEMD

KD ratio to GLS3000 | Binder
1.22 | B1
1.61 | B2
4460 | B3
0.86 | B4
5.03 | B5
3.25 | B6
3.36 | B7
2.3 | B8
26.8 | B9
12.7 | B10
1.01 | B11
1.3 | B12
36.3 | B13
1.32 | B14
7210 | B15
1.01 | B16
85800 | B17

Molecular target: T2, CD3ε homodimer protein (human, UniProt P07766 23-126, limits assumed, sulfo-tag or biotin label in some ECL assays)
T2 construct: also called human CD3ε homodimer protein; CD3 (CD3ε)
Test: SPR, CD3ε homodimer on chip;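 note: biacore SPR with antibody variants flowed as analyte over amine-coupled CD3ε homodimer on a CM chip, bound amount of each single-residue H chain variant over that of parent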

T2 sequence (P07766 23-126 limits assumed): as above

ratio of amounts bound vs CE115HA000 | Binder
0.24 | B18
9.9 | B19
0.52 | B20
0.27 | B21
0.18 | B22
0.48 | B23
0.64 | B24
0.56 | B25
0.66 | B26
1.03 | B27
0.8 | B28
0.9 | B29
0.45 | B30
0.22 | B31
0.55 | B32
0.8 | B33
0.66 | B34
0.11 | B35
0.35 | B36
0.3 | B37
0.26 | B38
0.33 | B39
0.11 | B40
0.94 | B41
0.19 | B42
1.23 | B43
0.87 | B44
0.7 | B45
